These results are taken from the supplement of paper PMC11246515.

The nature of this series: total protein half-life in vivo (active degradation + dilution); higher = more stable protein.
Setting [1] is: E. coli NCM3722 delta-clpP delta-lon delta-hslV, growth: N-lim chemostat, doubling time 6 h.
Setting [2] is: E. coli NCM3722 delta-clpP, growth: N-lim chemostat, doubling time 6 h.
Where [3] appears, read: E. coli NCM3722 delta-lon, growth: N-lim chemostat, doubling time 6 h.
Where [4] appears, read: E. coli NCM3722 delta-smpB, growth: N-lim chemostat, doubling time 6 h.
Setting [5] is: wild type E. coli NCM3722, growth: C-lim chemostat, doubling time 6 h.
Where [6] appears, read: wild type E. coli NCM3722, growth: C-lim chemostat, doubling time 12 h.
The mark [7] stands for this setting: wild type E. coli NCM3722, growth: N-lim chemostat, doubling time 12 h.
Setting [8] is: wild type E. coli NCM3722, growth: P-lim chemostat, doubling time 6 h.
[9] abbreviates: wild type E. coli NCM3722, growth: P-lim chemostat, doubling time 12 h.
Setting [10] is: E. coli NCM3722 delta-hslV, growth: N-lim chemostat, doubling time 6 h.
The mark [11] stands for this setting: wild type E. coli NCM3722, growth: C-lim chemostat, doubling time 3 h.
[12] abbreviates: wild type E. coli NCM3722, growth: N-lim chemostat, doubling time 6 h.

± gives the standard deviation of the averaged measurements.

On to “MEDLNVVDSINGAGSWLVANQALLLSYAVNIVAALAIIIVGLIIARMISNAVNRLMISRKIDATVADFLSALVRYGIIAFTLIAALGRVGVQTASVIAVLGAAGLAVGLALQGSLSNLAAGVLLVMFRPFRAGEYVDLGGVAGTVLSVQIFSTTMRTADGKIIVIPNGKIIAGNIINFSREPVRRNEFIIGVAYDSDIDQVKQILTNIIQSEDRILKDREMTVRLNELGASSINFVVRVWSNSGDLQNVYWDVLERIKREFDAAGISFPYPQMDVNFKRVKEDKAA [P0C0S1]”, for which the “total protein half-life in vivo” value runs as follows: under setting [1], 6.89 ± 0.37 h; under setting [2], 7.53 ± 0.59 h; under setting [3], 6.91 ± 1.2 h; under setting [4], 5.91 ± 0.16 h; under setting [5], 6.24 ± 0.12 h; under setting [6], 12.81 ± 0.023 h. Also, the “total protein half-life in vivo” value under setting [7] was determined as 12.7 ± 0.82 h, the “total protein half-life in vivo” value under setting [8] is 6.423 ± 0.022 h and the “total protein half-life in vivo” value under setting [9] came out at 13.2 ± 0.67 h.

For the sequence “MMSAPKITFIGAGSTIFVKNILGDVFHREALKTAHIALMDIDPTRLEESHIVVRKLMDSAGASGKITCHTQQKEALEDADFVVVAFQIGGYEPCTVTDFEVCKRHGLEQTIADTLGPGGIMRALRTIPHLWQICEDMTEVCPDATMLNYVNPMAMNTWAMYARYPHIKQVGLCHSVQGTAEELARDLNIDPATLRYRCAGINHMAFYLELERKTADGSYVNLYPELLAAYEAGQAPKPNIHGNTRCQNIVRYEMFKKLGYFVTESSEHFAEYTPWFIKPGREDLIERYKVPLDEYPKRCVEQLANWHKELEEYKKASRIDIKPSREYASTIMNAIWTGEPSVIYGNVRNDGLIDNLPQGCCVEVACLVDANGIQPTKVGTLPSHLAALMQTNINVQTLLTEAILTENRDRVYHAAMMDPHTAAVLGIDEIYALVDDLIAAHGDWLPGWLHR”, the “total protein half-life in vivo” value came to 4.14 h under setting [1]; 2.52 ± 0.52 h under setting [2]; 1.5 h under setting [10]; 2.73 h under setting [3]; 3.25 ± 0.39 h under setting [11]; 4.25 ± 0.26 h under setting [5]. In addition, the “total protein half-life in vivo” value is, setting by setting: under setting [6], 8.03 ± 1.2 h; under setting [12], 1.97 h; under setting [8], 4.92 ± 0.48 h; under setting [9], 9.8 ± 0.35 h.

Turning to “MIEWQDLHHSELSVSQLYALLQLRCAVFVVEQNCPYQDIDGDDLTGDNRHILGWKNDELVAYARILKSDDDLEPVVIGRVIVSEALRGEKVGQQLMSKTLETCTHHWPDKPVYLGAQAHLQNFYQSFGFIPVTEVYEEDGIPHIGMAREVIQA [P0AEH3]”, the “total protein half-life in vivo” value runs as follows: under setting [1], 4.51 ± 0.43 h; under setting [10], 3.93 ± 1.4 h; under setting [3], 3.58 ± 0.13 h; under setting [4], 2.23 ± 0.14 h; under setting [11], 2.35 ± 0.064 h; under setting [5], 4.3 ± 0.27 h. Further, the “total protein half-life in vivo” value stood at 7.04 ± 0.82 h under setting [6]; 2.68 ± 0.086 h under setting [12]; 3.85 ± 0.064 h under setting [7]; 4.54 ± 0.38 h under setting [8]; 9.98 ± 1.5 h under setting [9].

Take “MDHAIYTAMGAASQTLNQQAVTASNLANASTPGFRAQLNALRAVPVEGLSLPTRTLVTASTPGADMTPGKMDYTSRPLDVALQQDGWLAVQTADGSEGYTRNGSIQVDPTGQLTIQGHPVIGEAGPIAVPEGAEITIAADGTISALNPGDPANTVAPVGRLKLVKATGSEVQRGDDGIFRLSAETQATRGPVLQADPTLRVMSGVLEGSNVNAVAAMSDMIASARRFEMQMKVISSVDDNAGRANQLLSMS”: the “total protein half-life in vivo” value reads like this: under setting [11], 0.504 ± 0.13 h; under setting [6], 3.33 ± 1.4 h.

For the sequence “MKLHHRMLRHFIAASVIVLTSSFLIFELVASDRAMSAYLRYIVQKADSSFLYDKYQNQSIAAHVMRALAAEQSEVSPEQRRAICEAFESANNTHGLNLTAHKYPGLRGTLQTASTDCDTIVEAAALLPAFDQAVEGNRHQDDYGSGLGMAEEKFHYYLDLNDRYVYFYEPVNVEYFAMNNWSFLQSGSIGIDRKDIEKVFTGRTVLSSIYQDQRTKQNVMSLLTPVYVAGQLKGIVLLDINKNNLRNIFYTHDRPLLWRFLNVTLTDTDSGRDIIINQSEDNLFQYVSYVHDLPGGIRVSLSIDILYFITSSWKSVLFWILTALILLNMVRMHFRLYQNVSRENISDAMTGLYNRKILTPELEQRLQKLVQSGSSVMFIAIDMDKLKQINDTLGHQEGDLAITLLAQAIKQSIRKSDYAIRLGGDEFCIILVDSTPQIAAQLPERIEKRLQHIAPQKEIGFSSGIYAMKENDTLHDAYKASDERLYVNKQNKNSRS”, the “total protein half-life in vivo” value under setting [1] was 6.76 ± 0.25 h; the “total protein half-life in vivo” value under setting [2] is 6.49 ± 0.48 h; the “total protein half-life in vivo” value under setting [10] turned out to be 6.32 ± 0.99 h; the “total protein half-life in vivo” value under setting [3] worked out at 6.49 ± 0.3 h; the “total protein half-life in vivo” value under setting [4] turned out to be 5.84 ± 0.39 h; the “total protein half-life in vivo” value under setting [11] was 3.35 ± 0.26 h. Moreover, the “total protein half-life in vivo” value under setting [12] is 6.57 ± 0.21 h, the “total protein half-life in vivo” value under setting [7] is 14.1 ± 0.84 h, the “total protein half-life in vivo” value under setting [8] was found to be 6.25 ± 0.64 h and the “total protein half-life in vivo” value under setting [9] was 12.9 ± 0.26 h.

For the sequence “MKFIIKLFPEITIKSQSVRLRFIKILTGNIRNVLKHYDETLAVVRHWDNIEVRAKDENQRLAIRDALTRIPGIHHILEVEDVPFTDMHDIFEKALVQYRDQLEGKTFCVRVKRRGKHDFSSIDVERYVGGGLNQHIESARVKLTNPDVTVHLEVEDDRLLLIKGRYEGIGGFPIGTQEDVLSLISGGFDSGVSSYMLMRRGCRVHYCFFNLGGAAHEIGVRQVAHYLWNRFGSSHRVRFVAINFEPVVGEILEKIDDGQMGVILKRMMVRAASKVAERYGVQALVTGEALGQVSSQTLTNLRLIDNVSDTLILRPLISYDKEHIINLARQIGTEDFARTMPEYCGVISKSPTVKAVKSKIEAEEEKFDFSILDKVVEEANNVDIREIAQQTEQEVVEVETVNGFGPNDVILDIRSIDEQEDKPLKVEGIDVVSLPFYKLSTKFGDLDQNKTWLLWCERGVMSRLQALYLREQGFNNVKVYRP”, the “total protein half-life in vivo” value runs as follows: under setting [1], 4.16 ± 1 h; under setting [2], 2.72 ± 0.25 h; under setting [10], 2.86 ± 0.2 h; under setting [3], 3.57 ± 0.082 h; under setting [4], 2.827 ± 0.0041 h; under setting [11], 3 ± 0.2 h. Further, the “total protein half-life in vivo” value by setting is: under setting [5], 4.62 ± 0.53 h; under setting [6], 7.48 ± 0.32 h; under setting [12], 2.952 ± 0.021 h; under setting [7], 3.99 ± 0.086 h; under setting [8], 5.66 ± 1.4 h; under setting [9], 8.76 ± 0.25 h.

For “MMQPVINAPEIATAREQQLFNGKNFHVFIYNKTESISGLHQHDYYEFTLVLTGRYFQEINGKRVLLERGDFVFIPLGSHHQSFYEFGATRILNVGISKRFFEQHYLPLLPYCFVASQVYRTNNAFLTYVETVISSLNFRETGLEEFVEMVTFYVINRLRHYREEQVIDDVPQWLKSTVEKMHDKEQFSESALENMVALSAKSQEYLTRATQRYYGKTPMQIINEIRINFAKKQLEMTNYSVTDIAFEAGYSSPSLFIKTFKKLTSFTPKSYRKKLTEFNQ”, the “total protein half-life in vivo” value runs as follows: under setting [1], 5.04 ± 0.62 h; under setting [11], 1.18 ± 0.012 h; under setting [5], 1.89 ± 0.2 h; under setting [6], 1.55 h.

In the case of “MEALGMIETRGLVALIEASDAMVKAARVKLVGVKQIGGGLCTAMVRGDVAACKAATDAGAAAAQRIGELVSVHVIPRPHGDLEEVFPIGLKGDSSNL [P0ABF4]”, the “total protein half-life in vivo” value is, setting by setting: under setting [1], 4.35 ± 0.68 h; under setting [2], 7.77 h; under setting [10], 4.24 ± 0.36 h; under setting [3], 4.82 ± 0.61 h; under setting [4], 4.98 ± 0.22 h; under setting [11], 2.59 ± 0.7 h. Besides, the “total protein half-life in vivo” value by setting is: under setting [5], 5.83 ± 0.41 h; under setting [6], 11.5 ± 1.5 h; under setting [12], 4.8 ± 0.3 h; under setting [7], 7.48 ± 0.57 h; under setting [8], 5.28 ± 0.062 h; under setting [9], 12.1 ± 1.1 h.

On to “MSQQVIIFDTTLRDGEQALQASLSVKEKLQIALALERMGVDVMEVGFPVSSPGDFESVQTIARQVKNSRVCALARCVEKDIDVAAESLKVAEAFRIHTFIATSPMHIATKLRSTLDEVIERAIYMVKRARNYTDDVEFSCEDAGRTPIADLARVVEAAINAGATTINIPDTVGYTMPFEFAGIISGLYERVPNIDKAIISVHTHDDLGLAVGNSLAAVHAGARQVEGAMNGIGERAGNCSLEEVIMAIKVRKDILNVHTAINHQEIWRTSQLVSQICNMPIPANKAIVGSGAFAHSSGIHQDGVLKNRENYEIMTPESIGLNQIQLNLTSRSGRAAVKHRMDEMGYKESEYNLDNLYDAFLKLADKKGQVFDYDLEALAFIGKQQEEPEHFRLDYFSVQSGSNDIATAAVKLACGEEVKAEAANGNGPVDAVYQAINRITEYNVELVKYSLTAKGHGKDALGQVDIVANYNGRRFHGVGLATDIVESSAKAMVHVLNNIWRAAEVEKELQRKAQHNENNKETV”, for which the “total protein half-life in vivo” value by setting is: under setting [1], 4.72 ± 0.57 h; under setting [2], 4.48 ± 0.55 h; under setting [10], 1.61 ± 0.08 h; under setting [3], 1.77 ± 0.1 h; under setting [4], 1.492 ± 0.0018 h; under setting [11], 2.21 ± 0.067 h. The “total protein half-life in vivo” value runs as follows: under setting [5], 3.71 ± 0.24 h; under setting [6], 4.45 ± 0.23 h; under setting [12], 1.63 ± 0.16 h; under setting [7], 1.92 ± 0.043 h; under setting [8], 3.83 ± 0.44 h; under setting [9], 6.6 ± 0.52 h.

Turning to “MTDNPNKKTFWDKVHLDPTMLLILLALLVYSALVIWSASGQDIGMMERKIGQIAMGLVIMVVMAQIPPRVYEGWAPYLYIICIILLVAVDAFGAISKGAQRWLDLGIVRFQPSEIAKIAVPLMVARFINRDVCPPSLKNTGIALVLIFMPTLLVAAQPDLGTSILVALSGLFVLFLSGLSWRLIGVAVVLVAAFIPILWFFLMHDYQRQRVMMLLDPESDPLGAGYHIIQSKIAIGSGGLRGKGWLHGTQSQLEFLPERHTDFIFAVLAEELGLVGILILLALYILLIMRGLWIAARAQTTFGRVMAGGLMLILFVYVFVNIGMVSGILPVVGVPLPLVSYGGSALIVLMAGFGIVMSIHTHRKMLSKSV [P0ABG7]”, the “total protein half-life in vivo” value was determined as 6.32 ± 0.84 h under setting [1]; 6.24 ± 0.34 h under setting [2]; 5.73 ± 0.093 h under setting [10]; 5.59 ± 0.48 h under setting [3]; 5.99 ± 0.59 h under setting [4]; 5.94 ± 0.34 h under setting [5]. For the same sequence, the “total protein half-life in vivo” value reads like this: under setting [12], 6.47 ± 0.14 h; under setting [7], 11.5 ± 1.2 h; under setting [8], 5.99 ± 0.21 h; under setting [9], 11.9 ± 0.4 h.

As for “MKALARFGKAFGGYKMIDVPQPMCGPEDVVIEIKAAAICGADMKHYNVDSGSDEFNSIRGHEFAGCIAQVGEKVKDWKVGQRVVSDNSGHVCGVCPACEQGDFLCCTEKVNLGLDNNTWGGGFSKYCLVPGEILKIHRHALWEIPDGVDYEDAAVLDPICNAYKSIAQQSKFLPGQDVVVIGTGPLGLFSVQMARIMGAVNIVVVGLQEDVAVRFPVAKELGATAVVNGSTEDVVARCQQICGKDNLGLVIECSGANIALKQAIEMLRPNGEVVRVGMGFKPLDFSINDITAWNKSIIGHMAYDSTSWRNAIRLLASGAIKVKPMITHRIGLSQWREGFDAMVDKTAIKVIMTYDFDE”, the “total protein half-life in vivo” value was 4.04 h under setting [3]; 1.33 h under setting [11]; 2.23 h under setting [5]; 3.7 ± 0.86 h under setting [6]; 5.73 h under setting [9].
